Target: human insulin receptor isoform B (human) (UniProt P06213)
Experiment: competitive displacement of 125I-Tyr^A14-insulin, plate antibody capture of receptor

Chain of UniProt P06213 (P06213 other isoform, or with tags, fused parts or gaps): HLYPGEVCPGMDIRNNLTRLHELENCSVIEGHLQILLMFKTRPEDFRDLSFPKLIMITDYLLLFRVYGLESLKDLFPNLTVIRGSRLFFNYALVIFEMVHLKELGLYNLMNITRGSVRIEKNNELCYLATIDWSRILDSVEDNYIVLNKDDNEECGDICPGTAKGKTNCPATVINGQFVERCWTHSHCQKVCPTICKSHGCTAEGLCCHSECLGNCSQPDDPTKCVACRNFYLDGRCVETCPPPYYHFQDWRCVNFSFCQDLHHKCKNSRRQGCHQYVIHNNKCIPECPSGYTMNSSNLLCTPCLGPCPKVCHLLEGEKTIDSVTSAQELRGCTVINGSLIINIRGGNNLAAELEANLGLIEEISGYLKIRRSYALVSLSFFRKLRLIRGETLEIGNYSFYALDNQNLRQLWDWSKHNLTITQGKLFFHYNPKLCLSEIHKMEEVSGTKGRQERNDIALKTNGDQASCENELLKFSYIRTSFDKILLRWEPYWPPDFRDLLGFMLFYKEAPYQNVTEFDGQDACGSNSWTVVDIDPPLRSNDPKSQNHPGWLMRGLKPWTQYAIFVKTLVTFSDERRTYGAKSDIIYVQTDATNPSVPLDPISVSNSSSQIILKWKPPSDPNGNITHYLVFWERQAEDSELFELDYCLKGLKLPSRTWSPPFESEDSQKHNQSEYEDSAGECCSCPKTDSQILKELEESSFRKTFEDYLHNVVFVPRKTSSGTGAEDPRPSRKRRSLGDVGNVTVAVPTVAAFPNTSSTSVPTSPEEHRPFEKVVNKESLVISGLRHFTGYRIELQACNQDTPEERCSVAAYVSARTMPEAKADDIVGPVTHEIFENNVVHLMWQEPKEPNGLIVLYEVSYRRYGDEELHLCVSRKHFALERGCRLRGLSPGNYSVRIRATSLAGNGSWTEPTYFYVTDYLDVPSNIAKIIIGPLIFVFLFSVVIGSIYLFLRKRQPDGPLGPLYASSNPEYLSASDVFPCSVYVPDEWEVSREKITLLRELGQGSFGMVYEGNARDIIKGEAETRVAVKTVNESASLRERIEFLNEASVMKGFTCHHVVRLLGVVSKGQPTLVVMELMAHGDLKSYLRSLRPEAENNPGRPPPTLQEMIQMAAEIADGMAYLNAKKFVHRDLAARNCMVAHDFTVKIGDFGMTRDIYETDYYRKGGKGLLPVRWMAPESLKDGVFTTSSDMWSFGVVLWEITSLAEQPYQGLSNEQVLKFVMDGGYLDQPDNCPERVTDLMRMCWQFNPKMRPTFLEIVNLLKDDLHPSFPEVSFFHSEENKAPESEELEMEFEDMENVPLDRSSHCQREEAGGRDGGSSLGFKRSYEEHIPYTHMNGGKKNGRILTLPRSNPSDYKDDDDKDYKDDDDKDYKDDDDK

- Kd: 0.04 nM
Substance: XKPEE: analogue with 2-methyl-Phe^B24 (called X), Lys^B28, Pro^B29, and EE-extension (Glu^B31, Glu^B32) (ligand)

Reference: patent US20110077196A1
